Key:
Experiment in all cases: cell-based or functional assay
LPA5 receptor = LPA5 receptor (Homo sapiens, UniProt Q9H1C0)
LPA1 receptor = LPA1 receptor (Homo sapiens, UniProt Q92633)
LPA2 receptor = LPA2 receptor (Homo sapiens, UniProt Q9HBW0)
LPA4 receptor = LPA4 receptor (Homo sapiens, UniProt Q99677)
[1] = target: LPA1 receptor endogenous to Xenopus oocytes (Xenopus laevis)
[2] = target: T1, LPA3 receptor (wild-type) (human) (UniProt Q9UBY5)
T1 sequence (looked up): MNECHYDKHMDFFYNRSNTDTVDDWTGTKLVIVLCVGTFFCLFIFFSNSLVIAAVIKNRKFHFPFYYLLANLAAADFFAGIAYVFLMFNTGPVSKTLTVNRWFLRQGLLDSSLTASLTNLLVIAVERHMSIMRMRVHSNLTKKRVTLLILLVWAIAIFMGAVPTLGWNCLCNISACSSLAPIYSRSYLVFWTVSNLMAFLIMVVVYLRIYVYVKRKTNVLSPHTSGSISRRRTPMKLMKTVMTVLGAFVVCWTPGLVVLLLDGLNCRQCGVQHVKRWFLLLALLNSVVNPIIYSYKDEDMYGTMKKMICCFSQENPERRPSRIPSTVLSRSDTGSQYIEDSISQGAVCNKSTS

LPA5 receptor, sequence (Q9H1C0 whole entry): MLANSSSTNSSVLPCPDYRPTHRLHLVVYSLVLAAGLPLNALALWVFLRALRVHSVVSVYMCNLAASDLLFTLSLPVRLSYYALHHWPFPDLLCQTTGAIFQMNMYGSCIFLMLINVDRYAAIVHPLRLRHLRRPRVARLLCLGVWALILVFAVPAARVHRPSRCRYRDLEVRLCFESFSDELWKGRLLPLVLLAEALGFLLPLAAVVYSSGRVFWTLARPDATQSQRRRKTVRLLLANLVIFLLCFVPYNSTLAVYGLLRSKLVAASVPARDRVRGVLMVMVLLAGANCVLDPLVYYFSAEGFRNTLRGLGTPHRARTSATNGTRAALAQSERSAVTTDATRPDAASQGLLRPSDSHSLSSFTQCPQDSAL
LPA2 receptor, sequence (Q9HBW0 whole entry): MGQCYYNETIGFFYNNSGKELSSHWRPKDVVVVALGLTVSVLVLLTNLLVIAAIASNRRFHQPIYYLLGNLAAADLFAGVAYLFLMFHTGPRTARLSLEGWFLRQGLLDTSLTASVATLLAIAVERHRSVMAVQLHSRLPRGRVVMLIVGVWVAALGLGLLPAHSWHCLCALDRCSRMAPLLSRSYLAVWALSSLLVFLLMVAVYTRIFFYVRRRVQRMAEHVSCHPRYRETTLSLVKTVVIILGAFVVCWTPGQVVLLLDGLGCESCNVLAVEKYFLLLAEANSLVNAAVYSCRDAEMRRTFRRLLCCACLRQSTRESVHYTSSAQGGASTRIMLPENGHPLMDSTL
LPA1 receptor, sequence (Q92633 whole entry): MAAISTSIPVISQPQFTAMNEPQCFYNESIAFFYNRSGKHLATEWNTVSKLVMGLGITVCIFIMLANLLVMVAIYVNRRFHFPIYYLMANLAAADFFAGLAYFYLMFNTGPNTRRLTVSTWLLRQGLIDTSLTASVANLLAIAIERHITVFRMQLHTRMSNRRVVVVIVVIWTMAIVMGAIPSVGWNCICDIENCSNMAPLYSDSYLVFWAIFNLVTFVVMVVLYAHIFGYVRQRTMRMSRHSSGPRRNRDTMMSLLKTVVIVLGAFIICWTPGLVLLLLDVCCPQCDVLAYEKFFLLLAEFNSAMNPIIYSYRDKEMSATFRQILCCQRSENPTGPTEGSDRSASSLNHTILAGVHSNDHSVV
LPA4 receptor, sequence (Q99677 whole entry): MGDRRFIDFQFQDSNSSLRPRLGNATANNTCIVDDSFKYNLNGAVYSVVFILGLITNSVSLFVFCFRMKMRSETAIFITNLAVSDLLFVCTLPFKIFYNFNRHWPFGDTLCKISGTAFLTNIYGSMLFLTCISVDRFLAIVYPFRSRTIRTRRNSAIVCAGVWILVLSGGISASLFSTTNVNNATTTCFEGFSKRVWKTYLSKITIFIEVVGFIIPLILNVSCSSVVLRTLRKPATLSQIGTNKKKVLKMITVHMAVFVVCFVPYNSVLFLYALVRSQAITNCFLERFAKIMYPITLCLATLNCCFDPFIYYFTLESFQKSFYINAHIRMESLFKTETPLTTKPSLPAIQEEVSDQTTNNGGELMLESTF

EC50 of LPA receptor-mediated intracellular calcium increase in B103 cells (LPA5 receptor): 0.046 nM
increase of intracellular calcium level in receptor-expressing B103 cells, gintonin 1 µg/ml (Fura-2AM) (LPA5 receptor): 298 nM
EC50 of LPA receptor-mediated intracellular calcium increase in B103 cells (LPA1 receptor): 0.1 nM
increase of intracellular calcium level in receptor-expressing B103 cells, gintonin 1 µg/ml (Fura-2AM) (LPA1 receptor): 186 nM
EC50 of LPA receptor-mediated intracellular calcium increase in B103 cells (LPA2 receptor): 0.004 nM
increase of intracellular calcium level in receptor-expressing B103 cells, gintonin 1 µg/ml (Fura-2AM) (LPA2 receptor): 208 nM
increase of intracellular calcium level in receptor-expressing B103 cells upon treatment with gintonin (Fura-2AM) (LPA4 receptor): 61.6 nM
ED50 of gintonin-induced NMDA receptor-mediated inward currents in NMDA receptor-expressing Xenopus oocytes [1]: 0.49 mg/L
ED50 of gintonin-induced activation of BKCa K+ channels expressed in Xenopus oocytes [1]: 0.71 mg/L
EC50 of LPA receptor-mediated intracellular calcium increase in B103 cells [2]: 0.12 nM
increase of intracellular calcium level in receptor-expressing B103 cells, gintonin 1 µg/ml (Fura-2AM) [2]: 206 nM
B1: glycolipoprotein gintonin isolated from ginseng (ligand)
chain 1: MGLTGKLICQTGIKSDGDVFHELFGTRPHHVPNITPANIQGCDLHEGEFGKVGSVVIWNYSIDGNAMIAKEEIVAIDEEDKSVTFKVVEGHLFEEFKSIVFSVHVDTKGEDNLVTWSIDYEKLNESVKDPTSYLDFLLSVTRDIEAHHLPK
chain 2: RSDYPWAMFALRLQWPAGFCEVNNACDTKSLLNTFTIHGLYPYNAKGTPALYCDGTAFDVNSVSDFLAEMHLAWPSHETNTEDIQFWEHEWKKHGRCSEALLKQTDYFRTALAFRKAFDIVGLLNQEGIYPNNDLYRPKMIKEAIKKHLNAVPEIDFTKNENSEYVLTDINVCVNQQATRFVDCPTDDATDDYRLKFVRLPSKMKFADPRTNSII
modifications: three N-glycosylation sites (positions not numbered in the text); bound sugars and lipids

Reference: patent publication US20140234868A1, “USE FOR GLYCOLIPOPROTEIN GINTONIN, ISOLATED AND IDENTIFIED FROM GINSENG, AS A NATURAL MEDICAL-PLANT DERIVED LIGAND” (KONKUK UNIVERSITY INDUSTRIAL COOPERATION CORP., priority 2011, published 2014)
